Test [1] has as its target erythrocytes infected with P. falciparum field isolate 9605. The test is described as follows: flow cytometry, staining of IEs. (Flow cytometry measures light scatter and fluorescence of single cells or particles in a stream.)
Test [2] has as its target erythrocytes infected with P. falciparum field isolate 11019. The test is described as follows: flow cytometry, staining of IEs.
For test [3], the target named is erythrocytes infected with P. falciparum field isolate 9775. The test is described as follows: flow cytometry, staining of IEs.
The target of test [4] is erythrocytes infected with P. falciparum field isolate 9215. Description: flow cytometry, staining of IEs.
In test [5] the target is erythrocytes infected with P. falciparum field isolate 10975. Description: flow cytometry, staining of IEs.
Test [6] concerns the target erythrocytes infected with P. falciparum field isolate 10936. Description: flow cytometry, staining of IEs.
For test [7], the target named is erythrocytes infected with P. falciparum field isolate 11014. Description: flow cytometry, staining of IEs.
Test [8] addresses erythrocytes infected with P. falciparum field isolate 9106. The test is described as follows: flow cytometry, staining of IEs.
For test [9], the target named is T1, RIFIN PF3D7_1400600 (Plasmodium falciparum).
T1 construct: also called specific RIFIN
T1 chain: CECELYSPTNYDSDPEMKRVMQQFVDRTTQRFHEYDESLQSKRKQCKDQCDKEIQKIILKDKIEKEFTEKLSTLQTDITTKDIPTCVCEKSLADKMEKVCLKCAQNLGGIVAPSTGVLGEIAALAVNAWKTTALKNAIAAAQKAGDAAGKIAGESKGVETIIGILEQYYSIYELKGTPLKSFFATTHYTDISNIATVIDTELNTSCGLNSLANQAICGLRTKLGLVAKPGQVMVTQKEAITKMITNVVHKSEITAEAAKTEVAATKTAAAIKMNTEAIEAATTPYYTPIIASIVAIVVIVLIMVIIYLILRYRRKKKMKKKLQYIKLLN
Description: immunoprecipitation with MGD21, LC-MS.

Some results are limits rather than exact numbers.

B1: MGC28 (antibody)
VH: EVQLVESGGGLVQPGGSLRLSCEASGFTFSSYWMTWVRQAPGKGLEWVANINQDGSERYYVDSVKGRFTISRDTVKNSLYLQMNNLRAEDTAVYYCARQRFCSDGSLFHGEDLPRPTISAETGTVISLGSHVTFVCRGPLGVQTFRLERESRSRYSETEDVSQVGPSESEARFRIDSVSEGNAGLYRCIYYKPPKWSEQSDYLELRVKGEDVTWALLTYCGGDRDESDYYMDVWGKGTTVTVSS
VL: QTVVTQEPSLTVSPGGTVTLTCASSTGSVTSGSFPNWFQQTPGQAPRSLIYSTTKKHSWTPARFSGSLLGGKAALTVSDTQPEDEAEYYCLLYCGGGQPWVFGGGTKLTVL
In the case of B1, the % parasite recognition was found to be 20.9% in [1]; 30% in test [2]; 9.8% in [3]; 10.8% in [4]; 12.3% in [5]; 3% in [6]. For the same molecule, the % parasite recognition in test [7] is 2.8%; in test [8], 7.5%.

B2: MGC33 (antibody)
VH: EVHLVESGGGLVQPGGSLRLSCEASGFTFSSYWMTWVRQAPGKGLEWVANINQDGSERYYVDSVKGRFTISRDTVKNSLYLQMNNLRAEDTAVYYCARQRFCSDGSLFHGEDLPRPTISAETGTVISLGSHVTFVCRGPLGVQTFRLERESRSRYSETEDVSQVGPSESEARFRIDSVSEGNAGLYRCIYYKPPKWSEQSDYLELRVKGEDVTWALLTYCGGDRDESDYYMDVWGKGTTVTVSS
VL: QTVVTQEPSLTVSPGGTVTLTCASSTGSVTSGSFPNWFQQTPGQAPRSLIYSTTKKHSWTPARFSGSLLGGKAALTVSDTQPEDEAEYYCLLYCGGGQPWVFGGGTKLTVQ
Consider B2, for which the % parasite recognition in test [1] was 22.3%; in test [2], 23.5%; in test [3] it was 9.7%; in [4] it was 11.5%; in test [5], 11.5%; in [6], 3.6%. For the same molecule, the % parasite recognition in [7] was 2.9%; in test [8] it was 7.5%.

B3: MGC34 (antibody)
VH: EVQLVESGGGLVQPGGSLRLSCEASGFTFSSYWMSWVRQAPGKGLEWVANINQDGSQKDYVDSVKGRFTISRDTAKNSLYLQMNSLRAEDTAVYYCARERLCTDDSHMHGEEDLPRPSISAEPGTVIPLGSHVTFVCRGPVGIHTFRLERESRSLYTETEDVTQVSPSESEARFRIESVTEGNAGLYRCVYYKPPKWSEQSDYLELLVKGEDVTRALFTHCGGDGKESDYHMDVWGKGTTVTVSS
VL: QTVVTQEPSLTVSPGGTVTLTCASSTGAVTSGYYPSWFHQKPGQPVRALIYSTSKTHSWTPARFSGSLLGGKAALTLSNVQPEDEADYYCLLYYGGPQPWVFGGGTKLTVQ
With B3, the % parasite recognition in test [1] came out at 23.7%; in test [2], 34.1%; in [3], 17.5%; in [4] it was 27.1%; in test [5] it was 15.2%; in [6], 11.3%. Besides, the % parasite recognition in test [7] amounted to 11.4%; in test [8] it was 6.8%.

B4: MGC17 (antibody)
VH: EVQLVESGGGLVQPGGSLKLSCVASGFNFRKSWMSWVRQAPGKGLEWVANIREDGSKAYYVDSVKGRFTVSRDNAKNSLYLQINSLRADDTAVYYCARDRFCSDDEDHSHGAEDLPRPSISAEEGTVIPLGSRLTFVCRGPVGVHTFRLERDRRSTYNDTEDVSHPSPSESEARFRIDSVSEGNAGLYRCVYYKSPEWSKQSDYLELLVKGQEVTWALFTSCGGDGEVPDYDMDVRGKGTTVTVSS
VL: DIVMTQSPDSLAVSLGERATINCKSSQSVLYRSKNKKYLAWFQQRPGQPPKVLIYWTSTRASGVPDRFSGSGSGTDFTLTISSLQADDVAVYYCQQYFIFPYTFGQGTKLEIR
Regarding B4, the % parasite recognition amounted to 6.8% in [1]; 7.1% in [2]; 2.5% in test [3]; 16.7% in test [4]; 1.5% in test [5]; 2.4% in [6]. For the same molecule, the % parasite recognition in test [7] is 1.6%; in [8], 1.3%.

B5: MGC32 (antibody)
VH: EVQLVESGGGLVQPGGSLRLSCVASGFNFRKSWMGWVRQAPGKGLEWVANIREDGSESFYADSVKGRFTVSRDNAKKSLYLHINSLRAEDTAVYYCARDRFCNDDEIHRHGQEDLPRPSISAAEGTVIPLGSHVTFVCRGPVGVQTFRLEKDSRSIYNDTENVSQPSPSESEARFRIDSVSEGNAGLYRCVYYKAPKWSAQSDYLELLVKGQEVTWALFTSCGGDGEEPDYDMDVRGKGTTVTVSS
VL: DILMTQSPDSLAVSLGERATINCKSSQSVLYRSKNKNYLAWFQQKPGQPPKVLIYSTSTRASGVPDRFTGSGSGTDFTLTISSLQAEDVAVYYCLQYYITPYTFGQGTKLEIK
Consider B5, for which the % parasite recognition in test [1] came out at 22.9%; in test [2], 38.1%; in test [3] it was 7.9%; in [4], 13.1%; in test [5], 3.2%; in [6], 2.9%. Also, the % parasite recognition is 4.5% in test [7] and 7.8% in test [8].

B6: MGD21 (antibody, IgG1)
VH: EVQLVETGPGLMKTSGTLSLTCAVSGDYVNTNRRWSWVRQAPGKGLEWIGEVHQSGRTNYNPSLKSRVTISVDKSKNQFSLKVDSVTAADTAVYYCARASPLKSQRDTDLPRPSISAEPGTVIPLGSHVTFVCRGPVGVQTFRLERERNYLYSDTEDVSQTSPSESEARFRIDSVNAGNAGLFRCIYYKSRKWSEQSDYLELVVKGEDVTWALSQSQDDPRACPQGELPISTDIYYVDVWGNGTTVTVSS
VL: AIRMTQSPSSLSASPGDKVSITCRASQHINDSLAWFQQRPGKAPKLLIYGASNLHSGVPSRFSGTGSGTDFTLTITGLQSEDFATYFCQQCNCFPPDFGQGTRLEIK
notes: Human mAb of donor D with LAIR-1 exon+intron insert in CDRH3; also called MGD21 ANTIBODY; mAb MGD21
With B6, in test [9], the “log2 fold change (enrichment in MGD21 immunoprecipitates of 3D7-MGD21+ against 3D7-MGD21- IEs)” value was above 2 log2 fold change.

B7: MGC26 (antibody)
VH: EVQLVDSGGGLVQPGGSLRLSCAASGFTFSTYWMTWVRQTPGKGLEWVASIKQDGTERYYVDSVKGRFIISRDNAKNSLYLQMHSLRAEDTAVYYCVRDRFCRDHMHIEEDLPRPSISPEPATVIPLGSHVTIVCRGPVGVETFRLQKESRSLYNDTEDVSQPSPSESEARFRIDSVSEGHGGLYRCLYYKSSKWSEQSDYLEMLVKGEDVTWALFPYCGGDGEESDYYMDVWGKGTTVTVSS
VL: DIQLTQSPSTLSASVGDRVTISCRASQRLSRSLAWYQQRPRKAPNLLIYKASPLEIGGPSRFTGSGSGTEFTLTISSLQPDDSATYYCQQYSNYSYSFGQGTKLEIR
Consider B7, for which the % parasite recognition in [1] was found to be 21.1%; in [2], 50.8%; in test [3], 3.4%; in test [4], 9.5%; in [5], 7.3%; in test [6], 3.6%. Moreover, the results for the % parasite recognition in test [7] and in [8] were 5.4% and 8.5%, respectively.

(Values after patent US20180186897A1 (INSTITUTE FOR RESEARCH IN BIOMEDICINE, published 2018).)
